From PMC4613710, “A biophysical study on molecular physiology of the uncoupling proteins of the central nervous system” (Bioscience Reports, 2015)

B1: human uncoupling protein 4 (His6-ENLYFQG-hUCP4) (natural protein, UniProt O95847 1-323, looked up)
chain: MSVPEEEERLLPLTQRWPRASKFLLSGCAATVAELATFPLDLTKTRLQMQGEAALARLGDGARESAPYRGMVRTALGIIEEEGFLKLWQGVTPAIYRHVVYSGGRMVTYEHLREVVFGKSEDEHYPLWKSVIGGMMAGVIGQFLANPTDLVKVQMQMEGKRKLEGKPLRFRGVHHAFAKILAEGGIRGLWAGWVPNIQRAALVNMGDLTTYDTVKHYLVLNTPLEDNIMTHGLSSLCSGLVASILGTPADVIKSRIMNQPRDKQGRGLLYKSSTDCLIQAVQGEGFMSLYKGFLPSWLRMTPWSMVFWLTYEKIREMSGVSPF
notes: uncoupling protein 4 (UCP4), human; cDNA synthesized by GenScript, sub-cloned into pET26b(+); Tetramer is the predominant form in POPC liposomes without SDS; dimers and a few monomers at 83 mM SDS; also called neuronal UCP
B2: human uncoupling protein 5 (His6-ENLYFQG-hUCP5) (natural protein, UniProt O95258 1-325, looked up)
chain: MGIFPGIILIFLRVKFATAAVIVSGHQKSTTVSHEMSGLNWKPFVYGGLASIVAEFGTFPVDLTKTRLQVQGQSIDARFKEIKYRGMFHALFRICKEEGVLALYSGIAPALLRQASYGTIKIGIYQSLKRLFVERLEDETLLINMICGVVSGVISSTIANPTDVLKIRMQAQGSLFQGSMIGSFIDIYQQEGTRGLWRGVVPTAQRAAIVVGVELPVYDITKKHLILSGMMGDTILTHFVSSFTCGLAGALASNPVDVVRTRMMNQRAIVGHVDLYKGTVDGILKMWKHEGFFALYKGFWPNWLRLGPWNIIFFITYEQLKRLQI
notes: uncoupling protein 5 (UCP5), human; cDNA bought from A.T.C.C., sub-cloned into pET26b(+); Tetramer is the predominant form in POPC liposomes without SDS; dimers and a few monomers at 83 mM SDS; also called neuronal UCP
B3: human uncoupling protein 2 (His6-ENLYFQG-hUCP2) (natural protein, UniProt P55851 1-309, looked up)
chain: MVGFKATDVPPTATVKFLGAGTAACIADLITFPLDTAKVRLQIQGESQGPVRATASAQYRGVMGTILTMVRTEGPRSLYNGLVAGLQRQMSFASVRIGLYDSVKQFYTKGSEHASIGSRLLAGSTTGALAVAVAQPTDVVKVRFQAQARAGGGRRYQSTVNAYKTIAREEGFRGLWKGTSPNVARNAIVNCAELVTYDLIKDALLKANLMTDDLPCHFTSAFGAGFCTTVIASPVDVVKTRYMNSALGQYSSAGHCALTMLQKEGPRAFYKGFMPSFLRLGSWNVVMFVTYEQLKRALMAACTSREAPF
notes: uncoupling protein 2 (UCP2), human; cDNA clone pET21a-UCP2 sub-cloned into pET26b(+); Tetramer is the predominant form in POPC liposomes without SDS; dimers and a few monomers at 83 mM SDS; PDB 2LCK is only viewed as a model of UCP2; also called neuronal UCP

Assays:
[1] = target: the molecule itself; assay: other fluorescence titration; Trp fluorescence (excitation 295 nm, 25 C) of UCP in POPC liposomes titrated with SDS (0-83.9 mM); maximum intensity against [SDS], Hill fit; Ka1/2 low SDS range (0-10 mM): tetramer to tight dimers; Kb1/2 high SDS range (10-100 mM): tight dimers to loose dimers and monomers
[2] = target: the molecule itself; assay: far-UV CD spectroscopy, SDS titration; UCP reconstituted in POPC liposomes titrated with SDS (0-83 mM); normalised theta208/theta222 against [SDS], Hill fit; K1/2 = [SDS] at 50% protein dissociation; tetramer to dimers
[3] = target: the molecule itself; assay: native gel or EMSA; semi-native PAGE (12% gel), UCP reconstituted in POPC liposomes titrated with SDS to 83 mM (about 40x CMC), Coomassie stain; bands identified by LC-MS/MS
[4] = target: the molecule itself; assay: native gel or EMSA; semi-native PAGE (12% gel, 2 mM SDS in running buffer only), UCP reconstituted in POPC liposomes, loading buffer lacking SDS, Coomassie stain; bands identified by LC-MS/MS

Row | Protein | Fl Ka1/2 (first transition, tetramer to dimers, [SDS]) [1] | Fl Kb1/2 (second transition, dimers to loose dimers and monomers, [SDS]) [1] | CD K1/2 ([SDS] at 50% protein dissociation) [2] | stoichiometry N [3] | stoichiometry N [4]
1 | B1 | 0.6 ± 0.1 mM SDS | 9.8 ± 0.3 mM SDS | 1 ± 0.1 mM SDS | 2 | 4
2 | B2 | 0.6 ± 0.1 mM SDS | 8.9 ± 0.2 mM SDS | 1 ± 0.1 mM SDS | 2 | 4
3 | B3 | 0.61 ± 0.1 mM SDS | 7.1 ± 0.3 mM SDS | 1.1 ± 0.1 mM SDS | 2 | 4
